Assay results from patent US10106582B2, “Complex-formation-modulating agents and uses therefor” (Factor Therapeutics Limited, priority 2012, dated 2018).
Where no end group is shown, it is not given here.

Target: T1, IGFBP-3 (Homo sapiens, UniProt P17936)
T1 construct: purchased GroPep
Test: VN-peptide array: binding of IGFBP-3 to immobilized overlapping 16-mer VN peptides
Settings: relative spot intensity on VN-peptide array after IGFBP-3 incubation, vs average intensity of negative controls (TotalLab)
Description: (§1) The inventors designed small-molecule VN-peptides that could potentially disrupt the formation of the IGF-I:IGFBP:VN trimeric or the IGF-II:VN dimeric complexes by binding to the IGFBPs and/or IGF-II and preventing their association with VN within the complex. To design peptides, the binding sites of IGFBP-3/-5 and IGF-II on VN were first determined using VN-peptide arrays. The entire VN protein sequence, excluding the signal peptide (residues 1-19), was divided into overlapping 16-mer peptides with 3AA frameshift/offset (for peptide sequences refer to Table 6) and immobilized onto cellulose membranes (peptide spotting was outsourced to PepMetric Technologies Inc). For a schematic of the arrangement of VN peptides and controls refer to FIG. 2. The resultant peptide arrays were incubated either with IGFBP-3, IGFBP-5 or IGF-II ligands, probed with the respective antibodies, the membranes developed using ECL, and imaged using the ChemiDoc™ XRS system (BioRad). The spots on the membrane were analysed using TotalLab array quantification software (TotalLab Ltd, Newcastle, England) identifying positive peptide spots by comparing each spot to the combined intensities of the negative controls.
(§2) The entire VN protein sequence, excluding the signal peptide (residues 1-19), was divided into overlapping 16-mer peptides with 3 amino acid (AA) frameshift/offset. This yielded 148 overlapping peptides covering the entire VN sequence (residues 20-478) (Table 6) with a resolution of 3 AA. Peptide synthesis and spotting onto a cellulose membrane were outsourced to PepMetric Technologies Inc. (Richmond, BC, Canada). For a diagrammatic illustration of the strategy used to divide an example amino acid sequence into peptides and to spot them onto the membrane, please refer to http://www.pepmetric.com/html/Pep-Overlap.html. The VN-overlapping peptides were generated using FMOC (9-fluorenylmethoxycarbonyl) Solid-Phase SPOT synthesis onto PEG-grafted amine-functionalized cellulose membrane (Whatman® 540 filter paper). The peptides were spotted onto the cellulose membrane in a 10×16 grid with each peptide being 10˜50 nM in concentration with >70% purity. Finally, these membranes were acetylated in order to cap the free ends of the spotted peptides preventing them from degradation during shipping and storage.
(§3) Along with the VN-peptides these membranes were also spotted with a positive control (i.e., universal binding peptides tested by the manufacturer to be positive for antibodies from goat, mouse, rat and chicken) and a negative control (ie. non-binding peptides as well as BSA) controls. For a schematic of the arrangement of VN-peptides and controls refer to FIG. 2 and for the sequence of each peptide corresponding to the grid number refer to Table 6. Four such replicate membranes were prepared and stored at room temperature in a clip sealed plastic bag. Long-term storage was at −20° C.
(§4) Methanol or ethanol was used to enhance the rehydration of peptide spots that might be hydrophobic. The peptides spotted onto the membranes were activated by incubating in 3 mL of 70% ethanol for five mins. The membranes were subsequently washed three times, 10 minutes each, in 10 mL TBS (Tris Buffered Saline; 8 g NaCl, 0.2 g KCl and 6.1 g Tris Base into 1000 mL of milliQ water, pH 7) with gentle rocking. Membrane blocking was performed by incubating in 10 mL casein-based membrane blocking buffer (MBS; Sigma-Aldrich) overnight at 4° C. The following day, the membranes were washed twice, 10 minutes each, in 10 mL TBS-T (TBS+0.05% Tween-20; pH 7).
(§5) Ligands used to test binding to VN-peptides were IGFBP-3, IGFBP-5 and IGF-II. For ligand binding, four separate solutions of 1 μg/mL ligand in 10 mL MBS buffer were prepared and each membrane was incubated in one of the four ligand solutions overnight at 4° C., with gentle rocking. […] The following day, the membranes were washed three times, 10 minutes each, in 10 mL TBS-T. […]

T1 sequence (P17936 28-291): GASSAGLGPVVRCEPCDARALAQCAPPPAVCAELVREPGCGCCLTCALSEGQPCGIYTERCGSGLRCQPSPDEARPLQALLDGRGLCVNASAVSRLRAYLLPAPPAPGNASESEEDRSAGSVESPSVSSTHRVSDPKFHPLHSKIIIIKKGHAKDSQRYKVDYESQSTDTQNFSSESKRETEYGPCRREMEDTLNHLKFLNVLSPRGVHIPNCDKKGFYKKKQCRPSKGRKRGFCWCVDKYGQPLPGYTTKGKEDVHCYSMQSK

Question: “DSWEDIFELLFWGRTS (not fully specified (N-terminus)) [Peptide 5D]” was tested. Which “Intensity (against −ve control), BP3” value did it give?
Answer: 2.5-BP3 fold-change

Question: For “FAMMQRDSWEDIFELL (not fully specified (N-terminus)) [Peptide 5B]”, which “Intensity (against −ve control), BP3” value is on record?
Answer: 4.5-BP3 fold-change

Question: Which “Intensity (against −ve control), BP3” value does the source give for “FEHFAMMQRDSWEDIF (not fully specified (N-terminus)) [Peptide 5A]” here?
Answer: 1.5-BP3 fold-change

Question: For “KGKQYWEYQFQHQPSQ (not fully specified (N-terminus)) [Peptide 4A]”, which “Intensity (against −ve control), BP3” value is on record?
Answer: 6-BP3 fold-change

Question: With “MQRDSWEDIFELLFWG (not fully specified (N-terminus)) [Peptide 5C]” as the sequence, how does the “Intensity (against −ve control), BP3” value read?
Answer: 4.5-BP3 fold-change

Question: “QYWEYQFQHQPSQEEC (not fully specified (N-terminus)) [Peptide 4B]” was tested. Which “Intensity (against −ve control), BP3” value did it give?
Answer: 12-BP3 fold-change

Target: T2, IGF-II (Homo sapiens, UniProt P01344)
T2 construct: purchased GroPep
Test: VN-peptide array: binding of IGF-II to immobilized overlapping 16-mer VN peptides
Settings: relative spot intensity on VN-peptide array after IGF-II incubation, vs average intensity of negative controls (TotalLab)
Description: as §1, §2, §3, §4, §5

T2 sequence (P01344 25-91 limits assumed): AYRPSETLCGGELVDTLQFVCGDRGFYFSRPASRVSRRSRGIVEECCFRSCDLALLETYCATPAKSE

Question: Which “Intensity (against −ve control), IGFII” value does the source give for “DELCSYYQSCCTDYTA (not fully specified (N-terminus); cysteine pairing not given here) [Peptide 1B]” here?
Answer: 12-IGFII fold-change

Question: Which “Intensity (against −ve control), IGFII” value does the source give for “LFSSEESNLGANNYDD (not fully specified (N-terminus)) [Peptide 7A]” here?
Answer: 17-IGF-II fold-change

Question: For “SEESNLGANNYDDYRM (not fully specified (N-terminus)) [Peptide 7B]”, which “Intensity (against −ve control), IGFII” value is on record?
Answer: 18-IGF-II fold-change

Question: For “SNLGANNYDDYRMDWL (not fully specified (N-terminus)) [Peptide 7C]”, which “Intensity (against −ve control), IGFII” value is on record?
Answer: 12-IGF-II fold-change

Question: With “TRQPQFISRDWHGVPG (not fully specified (N-terminus)) [Peptide 6C]” as the sequence, how does the “Intensity (against −ve control), IGFII” value read?
Answer: 1.5-IGFII fold-change
